# Measurements reported in the nanobody polyreactivity screen of Harvey et al. (2022).
# Test: yeast display, Sf9 membrane polyspecificity reagent, FACS + sequencing; frameworks hold sequencing errors
# In short: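 Polyreactivity labels are assigned by the sorting gate from which each nanobody was recovered. The gates were low and high (top ~1%), set on anti-HA fluorescence for expression and streptavidin fluorescence for reagent binding. Before sorting, galactose-induced (36–48 hours) yeast display cells were stained for 1 hour at 4 °C with 10% biotinylated, detergent-solubilized Sf9 membrane reagent.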
row,Sequence,polyreactivity (PSR sort gate)
1,QVQLVESGGGLVQAGGSLRLSCAASGSIIRQNAMGWYRQAPGKERELVAAISFSGTSTYYADSVKGRFTISRDNAKNTVYLQMNSLKPEDTAVYYCAVDNISYWAVENDYWGQGTQVTVSS,low polyreactivity
2,QVQLVESGGGLVQAGGSLRLSCAASGSIIRRYAMGWYRPAPGKERELVAAISSGGSTYYADSVKGRFTISRDNAKNTVYLQMNSLKPEDTAVYYCAALYYQITTTHYLHLHYDYWGEGTQVTVSS,low polyreactivity
3,QVQLVESGGGLVQAGGSLRLSCAASGSIIRWNAMGWYRQAPGKERELVAAISYSGGSTYYADSVKGRFTISRDNAKNTVYLQMNSLKPEDTAVYYCAKEYIVGFYLVFNRFDYWGQGTQVTVSS,low polyreactivity
4,QVQLVESGGGLVQAGGSLRLSCAASGSIIRWYTMAWYRQAPGKESEFVAAITRSGGSTYYADSVKVRFTISRDNAKNTVYLQMNSLKPEDTAVYYCARYANYDKRYDYWGQGTQVTVSS,high polyreactivity
5,QVQLVESGGGLVQAGGSLRLSCAASGSIISSYAMGWYRKAPGKETELLAVITRSGGSTYYADSVKGRFTISRDNAKNTVYLQMKSLKPVDTAVYYCNAQPTRIKLPSYDYWGQGTQVTVST,high polyreactivity
6,QVQLVESGGGLVQAGGSLRLSCAASGSIISSYAMGWYRQAPGKEREFVAAISSSGDSTYADSVKGRFTISRDNAKNTVYVQMNSLKPEDTAVFYCAVGGAGSDDYWGQGSQVTVSS,low polyreactivity
7,QVQLVESGGGLVQAGGSLRLSCAASGSIISYNTMGWYRQAPGKEREFVASIRRRGGSTYYADSVKGRFTISRDNAKNTVYLQMNSLKPEDTAGYYCAKANPHYVISDGVYHPRGGYWGHGTQVTVSS,low polyreactivity
8,QVQLVESGGGLVQAGGSLRLSCAASGSIITPYAMGWYRQAPGKERELVAAISGRGGSTYYADSVKGRFTISRDNAKNTVYLQMNSLKPEDTAVFFCAAKRSGGQGQGYGYWGQGTQVTVSS,high polyreactivity
9,QVQLVESGGGLVQAGGSLRLSCAASGSIITVNAMGWYRQAPGKEREFVAGITSIGGRTYYADSVKGRFTISRDNAKNTDYLQMNSLKPEDTAVYDCNKRTYRARYDYWGQGTQVTVSS,high polyreactivity
10,QVQLVESGGGLVQAGGSLRLSCAASGSIIWRNAMGWYSQAPGKERELVAAISYSGGSTYYADSVKGRFTISRDNAKNTVDLQMNSLKPEDTAVYYCAADYTEVLEYDYWGQGTQVTVSS,low polyreactivity
11,QVQLVESGGGLVQAGGSLRLSCAASGSIIWYYAMGWYRQAPGKERELVAAISISGSTYYADSVKGRFTISRDNAKNTVYLQMNSLKPEDTAVYYCAARKFFWRSNYDYWGQGTQVTVSS,low polyreactivity
12,QVQLVESGGGLVQAGGSLRLSCAASGSIIYNYAMGWYRQAPGKERELVAAINRSGGITYYADSVKGRFTISRDNAKNPVYLQMNSLKPEDTAVYYCAADRSFGHHYWYTGKRYDYWGQGTQVTVST,low polyreactivity
13,QVQLVESGGGLVQAGGSLRLSCAASGSIIYTYAMGWYRQAPGKVRELVAAITGSDNTNYADSVKGRFTISRDNAKNTVYLQMNSLNPEDTAVYYCAADFPWSTKSWHPDSGDSWGQGTQVTVSS,low polyreactivity
14,QVQLVESGGGLVQAGGSLRLSCAASGSILADYAMGWYRQGPGKERELVAGISSGGSTNYADSVKGRFTITGDNAKNTVSLQMNSLKPEDTAVYYCNADQDFLFIGYLFDYWGQGTQVTVSS,low polyreactivity
15,QVQLVESGGGLVQAGGSLRLSCAASGSILALYTMGVYRQAPGKERELVASISSGGRTNYADSVKGRFTISRDNAKNTVYLQMNSLKPEDTAVYYCARSRLGRAYGRYDYWGQGTQVTVSS,low polyreactivity
16,QVQLVESGGGLVQAGGSLRLSCAASGSILARYAMGWYRQAPGKERQLVAAISYNGCSTYYADSVKGRFTISRDNAKNTVYLQMNSLKPEDTAVYYCAKAYDTTLTYNYWGQGTQVTVSS,low polyreactivity
17,QVQLVESGGGLVQAGGSLRLSCAASGSILDGYDMGRYRQAPGKERDLDAAISTNSDRTYYADSVKGRFTISRDNAKNTVYLQMNSLKPEDTAVYYCNARKRRRAGYPYDYWGQGTQVTVSS,high polyreactivity
18,QVQLVESGGGLVQAGGSLRLSCAASGSILDIYAMGLYRQAPGKERELVAGISTSGGSTYYADSVMGRFTFSRDNAKITVYLQMNSLKPEDTAVYYCAKDYGYQGHTSTLYWAYLEYDFWGQVTQVTVSS,low polyreactivity
19,QVQLVESGGGLVQAGGSLRLSCAASGSILDLNAMGWYRQAPGKERELVAAISYSGDSTYYADSVKGRFTISRDNAKNTVYLQMNSLKPEDTAVYYCAAEVYGAVFDYWGQGTQVTVSS,low polyreactivity
20,QVQLVESGGGLVQAGGSLRLSCAASGSILDQNTMGWYRQAPGKERELVAAITGSGGITYYADSVKGRFTISRDNAKNTVYLQMNSLKPEDTAVYYCATRTWRAYRKYNYWGQGTQVTVSS,high polyreactivity
21,QVQLVESGGGLVQAGGSLRLSCAASGSILDSNAMGWYRQAPGKERELVAAITSGGSTYYADSVKGRFTISRDNAKNTVYLQMNSLKPEETAVYYCAAAYLGYGAVQPSYEGGYWGQGTQVTVSS,low polyreactivity
22,QVQLVESGGGLVQAGGSLRLSCAASGSILDSYAMGWDRQAPGKERELVAASTRSGVRTYYADSVKGRFTISRDNAKNTVYLQMNSLKPEDTAVYYCAARVTRYRDLNYWGQGTQVTVSS,high polyreactivity

row,Sequence,polyreactivity (PSR sort gate)
1,QVQLVESGGGLVQAGGSLRLSCAASGSILDYYVMGWYSQAPGKERELVAAIRGGGSTYYADSVKARFTISRDNAKNTVYLQMNSLKPEDTAVYYCAKDSQTARDFDYWGQGTQVTVSS,low polyreactivity
2,QVQLVESGGGLVQAGGSLRLSCAASGSILFGNAMGWYRQAPGKERELVAAITVSGGSTYYADSVKGRFTISRDNAKNTVYLQMNSLKPEDTAVYYCAAGGWWHYRPQSYSGPFDYWGQGTQVTVSS,low polyreactivity
3,QVQLVESGGGLVQAGGSLRLSCAASGSILFTNAMGWYRQAPGKERELVAAISSGGSTYYADSVKGRFTISRDNAKNTVYLQMNSLKPEDSAVYYCAADHLNVGREYVEYDYWGQGTQVTVSS,low polyreactivity
4,QVQLVESGGGLVQAGGSLRLSCAASGSILFTNAMGWYRQAPGKERELVAAISSGGSTYYADSVKGRFTISRDNAKNTVYLQMNSLKPEDTAVYYCAADQLNVGREYVEYDFWGQGTQVTVSS,low polyreactivity
5,QVQLVESGGGLVQAGGSLRLSCAASGSILGANAMGWYRQAPGKERELVAAISYRGGSTYYADSVKGRFTISRDNAKNTVYLQMNSLKPEDTAVYYCAAVVPTGYDYWGQGTQVTVSS,low polyreactivity
6,QVQLVESGGGLVQAGGSLRLSCAASGSILGDNAMAWYRQAPGKERELVAAISYRGGSTYADSVKGRFTISRANAKNTVYLQMNSLKPEDTAVYYCNKTDIDDSQYREYEYWGQGTQVTVSS,low polyreactivity
7,QVQLVESGGGLVQAGGSLRLSCAASGSILGDYGMGWYRQAPGKERELVAAITWNGDSTYYADSVKGRFTISRDNAKNTVYLQMNSLKPEDTAVYYCAADLQDYKYYPWYGYWGQGTQVTVSS,low polyreactivity
8,QVQLVESGGGLVQAGGSLRLSCAASGSILGDYGMGWYRQAPGKEREVVAAITWNGDSTYYADSVKGRFTISRDNAKNTVYLQMNSLKPEDTAVYYCAADLQDYKYYPWYGYWGQGTQVTVSS,low polyreactivity
9,QVQLVESGGGLVQAGGSLRLSCAASGSILGGNAMGWYRQAPGKERELVAAITFSGGGTYYADSVKGRFTISRDNAKNTVYLQMNRLKPEDTAVYYCNAFGPDYYHVYPAEDYWGQGTQVTVSS,low polyreactivity
10,QVQLVESGGGLVQAGGSLRLSCAASGSILGGNSMGWYRQATGKERVLVAAITFSGGGTYYADSVKGRFTISRDNAKKTVYLQMNSLKPEDSAVYYCAADKDGYTYEFDYWGQGTQVTVSS,low polyreactivity
11,QVQLVESGGGLVQAGGSLRLSCAASGSILGLYAMRWYRQATGKERELVASIPSSGSTYYAVSVKGRFTISRDYAKNTVYLQMYSLKPEDTAVYYCAAVGSYYYYIRYDYWGQGTQVTVSS,low polyreactivity
12,QVQLVESGGGLVQAGGSLRLSCAASGSILGPNAMGWYRQAPGKERELVARISTSGGSTYYADSVKGRFTISRDNAKNTVYLQMNSLKPEDTAVYYCATGLVWWRSPYDYWGQGTQVTVSS,high polyreactivity
13,QVQLVESGGGLVQAGGSLRLSCAASGSILGPYAMGWYRQAPGKERELVAGISGSGTRTYYADSVKGRFTISRDNAKNTVYLQMNSLKPEDPAVYYCAARYYSSWIRYPTYDYWGQGTQVTVSS,high polyreactivity
14,QVQLVESGGGLVQAGGSLRLSCAASGSILGRYAMGGYRQAPGKERELVASITRRAGTTYYADSVKGRFTISRDNAKNTVYLQKNSLKPEATAVYYCAARAYTNYYYWGQGTQVTVSS,high polyreactivity
15,QVQLVESGGGLVQAGGSLRLSCAASGSILGSNAMGWYRQAPGKERELVAAITSSGGSTYYADSVKGRFTISRDNAKNTVYLQMNSLKPEDTAVYYCAARTNYDSTRGEYDYWGQGTQVTVSS,low polyreactivity
16,QVQLVESGGGLVQAGGSLRLSCAASGSILGSYAMGWYRQAPGKERELVAAINYSGGSTYYADSVKGRFTISRDNAKNTVYLQMNSLKPEETAVYYCAAVATAGYSNYKLDYWGQGTQVTVSS,low polyreactivity
17,QVQLVESGGGLVQAGGSLRLSCAASGSILGVYAMGWYRQAPGKERELVAAISSGGRTYYADSVKGRFTISRDNAKNTVYLQMNSLKPEDTAVYYCNAVSGSFLKYSRYYWGQGTQVTVSS,high polyreactivity
18,QVQLVESGGGLVQAGGSLRLSCAASGSILIGNAMGWYRQAPGKERELVAGISSDVSTNYADSVKGRFTISRDNAKNTVYLQMNSLNPEDTAVYYCNKDAGPFQEHLYSWGYDSWGQGTQVTVSS,low polyreactivity
19,QVQLVESGGGLVQAGGSLRLSCAASGSILIVYAMGWYRQAPGKERELVAAITRGGRTNYADSVKGRFTISRDNAKNTVYLQMNSLKPEDTAVYYCAARVLPANVKPYNYWGQGTQVTVSS,high polyreactivity
20,QVQLVESGGGLVQAGGSLRLSCAASGSILKRYAMGWYRQAPGKERELVAAITRRGGSTYYADSVKGRFTISRDNAKNTVYLQMNSLKPEDTAVYYCNAYTYSATVPIFTNYGYWGQGTQVTVSS,high polyreactivity
21,QVQLVESGGGLVQAGGSLRLSCAASGSILLDYAMGWYRQAPGKERELVAVISRRGTSTYYADSVKGRFTISRDNAKNTVYLQMNSLKPEDTAVYYCATSTWSFYRRYDYWGQGTQVTVSS,high polyreactivity
